Laboratory results as given in paper PMC10786891, “Massively parallel profiling of RNA-targeting CRISPR-Cas13d”.

T1: EsCas13d, nuclease-dead (Eubacterium siraeum, UniProt B0MS50, R295A;H300A;R849A;H854A)
T1 sequence: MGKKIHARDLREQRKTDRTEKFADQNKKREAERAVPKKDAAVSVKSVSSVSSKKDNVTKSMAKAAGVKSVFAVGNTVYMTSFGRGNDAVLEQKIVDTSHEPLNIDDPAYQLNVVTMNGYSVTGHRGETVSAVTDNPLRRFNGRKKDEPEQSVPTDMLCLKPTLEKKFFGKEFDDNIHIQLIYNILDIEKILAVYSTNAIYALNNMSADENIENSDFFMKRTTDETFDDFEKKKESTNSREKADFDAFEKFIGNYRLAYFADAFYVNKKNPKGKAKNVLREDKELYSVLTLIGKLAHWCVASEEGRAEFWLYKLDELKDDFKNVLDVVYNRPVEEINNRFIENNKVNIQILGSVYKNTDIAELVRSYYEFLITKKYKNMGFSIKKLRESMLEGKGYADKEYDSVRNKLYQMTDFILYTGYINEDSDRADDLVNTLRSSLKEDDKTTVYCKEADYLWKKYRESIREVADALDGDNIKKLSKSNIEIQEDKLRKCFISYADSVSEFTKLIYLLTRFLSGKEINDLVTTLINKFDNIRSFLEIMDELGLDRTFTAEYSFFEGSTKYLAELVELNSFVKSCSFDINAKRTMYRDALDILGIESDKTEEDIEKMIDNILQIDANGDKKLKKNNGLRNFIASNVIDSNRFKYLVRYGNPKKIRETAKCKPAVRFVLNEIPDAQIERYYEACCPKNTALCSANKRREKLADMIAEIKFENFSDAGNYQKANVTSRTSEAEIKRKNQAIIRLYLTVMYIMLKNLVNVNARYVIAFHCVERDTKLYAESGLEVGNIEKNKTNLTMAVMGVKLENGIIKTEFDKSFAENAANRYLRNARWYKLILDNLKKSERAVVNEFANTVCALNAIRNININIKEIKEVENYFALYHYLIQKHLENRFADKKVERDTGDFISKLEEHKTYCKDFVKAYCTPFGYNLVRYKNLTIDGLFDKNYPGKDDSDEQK


Biological target: T1, EsCas13d, nuclease-dead
Assay: crRNA (strand 1, pre-loaded); Mg2+; 40 mM Tris-HCl pH 7.5, 150 mM NaCl, 6 mM MgCl2, 1 mM DTT, 0.1% Tween-20, 0.2 mg/ml BSA; 25 C; 10 min per concentration, then washed
Details: tags: His6-TwinStrep-SUMO cleaved; N-terminal SNAP kept (SNAP-Surface 488); label: 3' end held by stalled T7 RNA polymerase

Row | Binder | Kd
1 | target 1 del9,del18 (mixed) RNA 1: CACCCGUGCAAAAAUGCAGGGGUCUAAAACUGAGCGGAUAACCUCUCUAUGG RNA 2: GGGAAUGGAUCCACAUCUACGAAUUCGUACCAUGAGAGGUUUCCGCUCACCGAGAUCGGAAGAGCACACGU | 100 ± 50 nM
2 | target 1 insG 3' of 11,insU 3' of 5 (mixed) RNA 1: CACCCGUGCAAAAAUGCAGGGGUCUAAAACUGAGCGGAUAACCUCUCUAUGG RNA 2: GGGAAUGGAUCCACAUCUACGAAUUCGUACCAUAGAGAGGUGUAUCCGUCUCACCGAGAUCGGAAGAGCACACGU | 39 ± 5 nM
3 | target 1 G13A,A16G (mixed) RNA 1: CACCCGUGCAAAAAUGCAGGGGUCUAAAACUGAGCGGAUAACCUCUCUAUGG RNA 2: GGGAAUGGAUCCACAUCUACGAAUUCGUACCAUAGGGAAGUUAUCCGCUCACCGAGAUCGGAAGAGCACACGU | 30 ± 4 nM
4 | target 1 insA 3' of 4,insC 3' of 3 (mixed) RNA 1: CACCCGUGCAAAAAUGCAGGGGUCUAAAACUGAGCGGAUAACCUCUCUAUGG RNA 2: GGGAAUGGAUCCACAUCUACGAAUUCGUACCAUAGAGAGGUUAUCCGCAUCCACCGAGAUCGGAAGAGCACACGU | 19.9 ± 2.5 nM
5 | target 1 insG 3' of 18,insA 3' of 17 (mixed) RNA 1: CACCCGUGCAAAAAUGCAGGGGUCUAAAACUGAGCGGAUAACCUCUCUAUGG RNA 2: GGGAAUGGAUCCACAUCUACGAAUUCGUACCAUAGGAAGAGGUUAUCCGCUCACCGAGAUCGGAAGAGCACACGU | 53 ± 8 nM
6 | target 1 C6U,A18U (mixed) RNA 1: CACCCGUGCAAAAAUGCAGGGGUCUAAAACUGAGCGGAUAACCUCUCUAUGG RNA 2: GGGAAUGGAUCCACAUCUACGAAUUCGUACCAUUGAGAGGUUAUCUGCUCACCGAGAUCGGAAGAGCACACGU | 25.8 ± 2 nM
7 | target 1 complement block 2-6 (mixed) RNA 1: CACCCGUGCAAAAAUGCAGGGGUCUAAAACUGAGCGGAUAACCUCUCUAUGG RNA 2: GGGAAUGGAUCCACAUCUACGAAUUCGUACCAUAGAGAGGUUAUCGCGAGACCGAGAUCGGAAGAGCACACGU | 12.3 ± 0.5 nM
8 | target 1 insC 3' of 15,insA 3' of 12 (mixed) RNA 1: CACCCGUGCAAAAAUGCAGGGGUCUAAAACUGAGCGGAUAACCUCUCUAUGG RNA 2: GGGAAUGGAUCCACAUCUACGAAUUCGUACCAUAGAGCAGGAUUAUCCGCUCACCGAGAUCGGAAGAGCACACGU | 77 ± 24 nM
9 | target 1 insC 3' of 9,insU 3' of 9 (mixed) RNA 1: CACCCGUGCAAAAAUGCAGGGGUCUAAAACUGAGCGGAUAACCUCUCUAUGG RNA 2: GGGAAUGGAUCCACAUCUACGAAUUCGUACCAUAGAGAGGUUACUUCCGCUCACCGAGAUCGGAAGAGCACACGU | 7.9 ± 0.9 nM
10 | target 1 insA 3' of 21,insA 3' of 7 (mixed) RNA 1: CACCCGUGCAAAAAUGCAGGGGUCUAAAACUGAGCGGAUAACCUCUCUAUGG RNA 2: GGGAAUGGAUCCACAUCUACGAAUUCGUACCAAUAGAGAGGUUAUCACGCUCACCGAGAUCGGAAGAGCACACGU | 12.6 ± 0.8 nM
11 | target 1 insA 3' of 19,insA 3' of 10 (mixed) RNA 1: CACCCGUGCAAAAAUGCAGGGGUCUAAAACUGAGCGGAUAACCUCUCUAUGG RNA 2: GGGAAUGGAUCCACAUCUACGAAUUCGUACCAUAAGAGAGGUUAAUCCGCUCACCGAGAUCGGAAGAGCACACGU | 30.7 ± 1.4 nM
12 | target 1 C7U,G15C (mixed) RNA 1: CACCCGUGCAAAAAUGCAGGGGUCUAAAACUGAGCGGAUAACCUCUCUAUGG RNA 2: GGGAAUGGAUCCACAUCUACGAAUUCGUACCAUAGACAGGUUAUUCGCUCACCGAGAUCGGAAGAGCACACGU | 48 ± 7 nM
13 | target 1 G17U,C21U (mixed) RNA 1: CACCCGUGCAAAAAUGCAGGGGUCUAAAACUGAGCGGAUAACCUCUCUAUGG RNA 2: GGGAAUGGAUCCACAUCUACGAAUUCGUACUAUAUAGAGGUUAUCCGCUCACCGAGAUCGGAAGAGCACACGU | 12 ± 0.9 nM
14 | target 1 insA 3' of 17,insG 3' of 16 (mixed) RNA 1: CACCCGUGCAAAAAUGCAGGGGUCUAAAACUGAGCGGAUAACCUCUCUAUGG RNA 2: GGGAAUGGAUCCACAUCUACGAAUUCGUACCAUAGAAGGAGGUUAUCCGCUCACCGAGAUCGGAAGAGCACACGU | 18.7 ± 1.5 nM
15 | target 1 G13A,U19A (mixed) RNA 1: CACCCGUGCAAAAAUGCAGGGGUCUAAAACUGAGCGGAUAACCUCUCUAUGG RNA 2: GGGAAUGGAUCCACAUCUACGAAUUCGUACCAAAGAGAAGUUAUCCGCUCACCGAGAUCGGAAGAGCACACGU | 38 ± 6 nM
16 | target 1 insU 3' of 5,insU 3' of 4 (mixed) RNA 1: CACCCGUGCAAAAAUGCAGGGGUCUAAAACUGAGCGGAUAACCUCUCUAUGG RNA 2: GGGAAUGGAUCCACAUCUACGAAUUCGUACCAUAGAGAGGUUAUCCGUCUUCACCGAGAUCGGAAGAGCACACGU | 17.8 ± 2.9 nM
17 | target 1 U3A,G12U (mixed) RNA 1: CACCCGUGCAAAAAUGCAGGGGUCUAAAACUGAGCGGAUAACCUCUCUAUGG RNA 2: GGGAAUGGAUCCACAUCUACGAAUUCGUACCAUAGAGAGUUUAUCCGCACACCGAGAUCGGAAGAGCACACGU | 7.58 ± 0.34 nM
18 | target 1 U10A,U19A (mixed) RNA 1: CACCCGUGCAAAAAUGCAGGGGUCUAAAACUGAGCGGAUAACCUCUCUAUGG RNA 2: GGGAAUGGAUCCACAUCUACGAAUUCGUACCAAAGAGAGGUAAUCCGCUCACCGAGAUCGGAAGAGCACACGU | 48 ± 7 nM
19 | target 1 G5C,C7G (mixed) RNA 1: CACCCGUGCAAAAAUGCAGGGGUCUAAAACUGAGCGGAUAACCUCUCUAUGG RNA 2: GGGAAUGGAUCCACAUCUACGAAUUCGUACCAUAGAGAGGUUAUGCCCUCACCGAGAUCGGAAGAGCACACGU | 15.8 ± 0.9 nM
20 | target 1 insC 3' of 18,insG 3' of 10 (mixed) RNA 1: CACCCGUGCAAAAAUGCAGGGGUCUAAAACUGAGCGGAUAACCUCUCUAUGG RNA 2: GGGAAUGGAUCCACAUCUACGAAUUCGUACCAUACGAGAGGUUGAUCCGCUCACCGAGAUCGGAAGAGCACACGU | ~70 nM
21 | target 1 insG 3' of 18 (mixed) RNA 1: CACCCGUGCAAAAAUGCAGGGGUCUAAAACUGAGCGGAUAACCUCUCUAUGG RNA 2: GGGAAUGGAUCCACAUCUACGAAUUCGUACCAUAGGAGAGGUUAUCCGCUCACCGAGAUCGGAAGAGCACACGU | 48 ± 5 nM
22 | target 1 insU 3' of 7,insA 3' of 4 (mixed) RNA 1: CACCCGUGCAAAAAUGCAGGGGUCUAAAACUGAGCGGAUAACCUCUCUAUGG RNA 2: GGGAAUGGAUCCACAUCUACGAAUUCGUACCAUAGAGAGGUUAUCUCGCAUCACCGAGAUCGGAAGAGCACACGU | 9.7 ± 0.7 nM
23 | target 1 insG 3' of 9,insA 3' of 3 (mixed) RNA 1: CACCCGUGCAAAAAUGCAGGGGUCUAAAACUGAGCGGAUAACCUCUCUAUGG RNA 2: GGGAAUGGAUCCACAUCUACGAAUUCGUACCAUAGAGAGGUUAGUCCGCUACACCGAGAUCGGAAGAGCACACGU | 10.3 ± 0.8 nM
24 | target 1 insC 3' of 22,insU 3' of 2 (mixed) RNA 1: CACCCGUGCAAAAAUGCAGGGGUCUAAAACUGAGCGGAUAACCUCUCUAUGG RNA 2: GGGAAUGGAUCCACAUCUACGAAUUCGUACCCAUAGAGAGGUUAUCCGCUCUACCGAGAUCGGAAGAGCACACGU | 23 ± 4 nM
25 | target 1 G13U,C22U (mixed) RNA 1: CACCCGUGCAAAAAUGCAGGGGUCUAAAACUGAGCGGAUAACCUCUCUAUGG RNA 2: GGGAAUGGAUCCACAUCUACGAAUUCGUAUCAUAGAGAUGUUAUCCGCUCACCGAGAUCGGAAGAGCACACGU | 82 ± 27 nM
26 | target 1 insA 3' of 22,insC 3' of 3 (mixed) RNA 1: CACCCGUGCAAAAAUGCAGGGGUCUAAAACUGAGCGGAUAACCUCUCUAUGG RNA 2: GGGAAUGGAUCCACAUCUACGAAUUCGUACACAUAGAGAGGUUAUCCGCUCCACCGAGAUCGGAAGAGCACACGU | 16.1 ± 2.5 nM
27 | target 1 insC 3' of 15,insA 3' of 13 (mixed) RNA 1: CACCCGUGCAAAAAUGCAGGGGUCUAAAACUGAGCGGAUAACCUCUCUAUGG RNA 2: GGGAAUGGAUCCACAUCUACGAAUUCGUACCAUAGAGCAGAGUUAUCCGCUCACCGAGAUCGGAAGAGCACACGU | 27.6 ± 2.8 nM
28 | target 1 insU 3' of 22,insU 3' of 15 (mixed) RNA 1: CACCCGUGCAAAAAUGCAGGGGUCUAAAACUGAGCGGAUAACCUCUCUAUGG RNA 2: GGGAAUGGAUCCACAUCUACGAAUUCGUACUCAUAGAGUAGGUUAUCCGCUCACCGAGAUCGGAAGAGCACACGU | 34 ± 6 nM
